Experimental data taken from paper PMC8744954.

Columns and labels:
Jun (Homo sapiens) = Jun (Homo sapiens) (UniProt P05412); conditions: cited from earlier work
[1] = target: p53 proteins tested (wild type p53 and 46 common clinical mutants); assay: SPR; NAPPA-SPRi: p53 proteins with GST-E-coil translated in situ and captured by K-coil peptide on a gold slide; purified full-length MDM2 20 μg/mL injected at 3 μL/s; running buffer 1x PBS, 1% Tween 20; 1:1 fit with Scrubber 2.0; apparent constants

UniProt P05412, sequence (P05412 whole entry): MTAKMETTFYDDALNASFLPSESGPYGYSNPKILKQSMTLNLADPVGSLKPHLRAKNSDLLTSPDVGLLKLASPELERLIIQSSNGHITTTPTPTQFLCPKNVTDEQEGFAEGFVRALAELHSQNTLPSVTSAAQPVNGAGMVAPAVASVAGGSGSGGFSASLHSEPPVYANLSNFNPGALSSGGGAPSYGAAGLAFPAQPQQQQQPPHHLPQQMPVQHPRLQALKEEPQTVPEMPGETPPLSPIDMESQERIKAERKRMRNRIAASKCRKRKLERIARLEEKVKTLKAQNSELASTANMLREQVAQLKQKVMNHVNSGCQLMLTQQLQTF

Row | Substance | Kd (Jun (Homo sapiens)) [nM] | Kd [1] [nM] | median KD [1] [nM]
1 | Fos (from UniProt P01100) | 1 |  | 
2 | MDM2, full-length purified recombinant (from UniProt Q00987 1-491) (natural protein) |  | 2.85 to 1350 | 105
